Source: publication PMC9482650, “Quantitative fragmentomics allow affinity mapping of interactomes” (Nature Communications, 2022)

T1: LIN7C, Q9NUP9
T1 sequence (Q9NUP9 88-185, limits assumed, looked up): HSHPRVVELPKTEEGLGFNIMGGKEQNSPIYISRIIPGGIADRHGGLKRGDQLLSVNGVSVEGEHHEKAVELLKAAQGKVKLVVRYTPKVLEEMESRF

T2: TJP3_3, O95049
T2 sequence (O95049 375-456, limits assumed, looked up): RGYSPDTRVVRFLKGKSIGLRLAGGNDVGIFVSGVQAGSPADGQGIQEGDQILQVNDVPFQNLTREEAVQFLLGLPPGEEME

T3: RAPGEF6, Q8TEU7
T3 sequence (Q8TEU7 525-625, limits assumed, looked up): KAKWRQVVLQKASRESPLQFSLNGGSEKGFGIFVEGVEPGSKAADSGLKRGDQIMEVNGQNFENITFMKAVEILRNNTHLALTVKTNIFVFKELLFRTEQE

T4: ARHGAP21, Q5T5U3
T4 sequence (Q5T5U3 45-169, limits assumed, looked up): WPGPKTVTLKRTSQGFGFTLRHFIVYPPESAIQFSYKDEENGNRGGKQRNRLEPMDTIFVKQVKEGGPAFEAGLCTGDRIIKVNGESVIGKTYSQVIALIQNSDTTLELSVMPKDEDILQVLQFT

T5: SHANK1, Q9Y566
T5 sequence (Q9Y566 658-767, limits assumed, looked up): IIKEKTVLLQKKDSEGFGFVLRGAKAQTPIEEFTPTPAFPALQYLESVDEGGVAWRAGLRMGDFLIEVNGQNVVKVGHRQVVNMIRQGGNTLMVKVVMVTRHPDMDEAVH

T6: ARHGEF11, O15085
T6 sequence (O15085 42-136, limits assumed, looked up): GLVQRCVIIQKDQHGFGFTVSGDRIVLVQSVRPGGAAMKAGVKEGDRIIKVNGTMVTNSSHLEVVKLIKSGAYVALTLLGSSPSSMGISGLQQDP

T7: LNX2_3, Q8N448
T7 sequence (Q8N448 463-564, limits assumed, looked up): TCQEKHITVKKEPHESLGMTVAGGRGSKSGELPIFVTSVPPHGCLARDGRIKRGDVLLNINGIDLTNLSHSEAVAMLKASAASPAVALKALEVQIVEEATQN

T8: APBA1_1, Q02410
T8 sequence (Q02410 651-752, limits assumed, looked up): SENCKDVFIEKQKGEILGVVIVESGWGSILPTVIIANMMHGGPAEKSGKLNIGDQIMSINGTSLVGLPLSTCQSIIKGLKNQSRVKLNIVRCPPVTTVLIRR

T9: LRRC7, Q96NW7
T9 sequence (Q96NW7 1440-1537, limits assumed, looked up): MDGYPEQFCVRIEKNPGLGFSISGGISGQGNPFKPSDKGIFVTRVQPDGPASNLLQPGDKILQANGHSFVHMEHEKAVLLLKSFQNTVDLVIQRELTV

T10: APBA1_2, Q02410
T10 sequence (Q02410 742-832, limits assumed, looked up): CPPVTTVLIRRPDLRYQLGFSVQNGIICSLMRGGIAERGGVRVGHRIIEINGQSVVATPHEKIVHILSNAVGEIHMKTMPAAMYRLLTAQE


What was measured:
Assay in all cases: holdup assay
Design in all cases: key: below the threshold = too weak to quantify, mostly under pKd 3.1 to 4
Settings in all cases: plain residues with an end cap or a label only (N-terminal biotin on a linker: ado-ado)
GRID2IP_1, A4D2P6 = molecular target: GRID2IP_1, A4D2P6
Sequence of GRID2IP_1, A4D2P6 (A4D2P6 1-87): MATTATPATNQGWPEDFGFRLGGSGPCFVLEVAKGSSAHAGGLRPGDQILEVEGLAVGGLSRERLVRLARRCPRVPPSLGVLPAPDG

DLG2_3, Q15700 = molecular target: DLG2_3, Q15700
Inadl_8, Q8NI35 = molecular target: Inadl_8, Q8NI35
Sequence of Inadl_8, Q8NI35 (Q8NI35 1425-1530): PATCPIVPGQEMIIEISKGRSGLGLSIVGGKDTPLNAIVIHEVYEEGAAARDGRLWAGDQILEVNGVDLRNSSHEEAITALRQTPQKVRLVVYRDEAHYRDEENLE

MAGI2_4, Q86UL8 = molecular target: MAGI2_4, Q86UL8
Sequence of MAGI2_4, Q86UL8 (Q86UL8 772-865): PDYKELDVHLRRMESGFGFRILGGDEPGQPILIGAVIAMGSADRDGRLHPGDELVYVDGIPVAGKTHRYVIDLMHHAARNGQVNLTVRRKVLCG

NHERF4_2, Q86UT5 = molecular target: NHERF4_2, Q86UT5
Sequence of NHERF4_2, Q86UT5 (Q86UT5 220-308): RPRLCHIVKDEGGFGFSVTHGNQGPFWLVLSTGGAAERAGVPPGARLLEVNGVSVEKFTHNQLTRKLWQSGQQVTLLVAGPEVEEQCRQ

SCRIB_2, Q14160 = molecular target: SCRIB_2, Q14160
Sequence of SCRIB_2, Q14160 (Q14160 857-960): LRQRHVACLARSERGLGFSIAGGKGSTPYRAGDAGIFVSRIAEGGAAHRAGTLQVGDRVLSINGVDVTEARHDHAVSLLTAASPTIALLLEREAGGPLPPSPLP

FRMPD2_2, Q68DX3 = molecular target: FRMPD2_2, Q68DX3
Sequence of FRMPD2_2, Q68DX3 (Q68DX3 944-1038): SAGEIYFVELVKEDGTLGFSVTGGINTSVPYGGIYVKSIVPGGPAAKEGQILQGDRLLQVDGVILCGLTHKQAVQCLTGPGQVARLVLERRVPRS

LIN7C, Q9NUP9 = molecular target: T1, LIN7C, Q9NUP9
TJP3_3, O95049 = molecular target: T2, TJP3_3, O95049
PDLIM1, O00151 = molecular target: PDLIM1, O00151
Sequence of PDLIM1, O00151 (O00151 1-87): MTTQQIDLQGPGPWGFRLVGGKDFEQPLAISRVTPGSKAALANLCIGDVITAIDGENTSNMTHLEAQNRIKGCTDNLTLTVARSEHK

MAGI3_2, Q5TCQ9 = molecular target: MAGI3_2, Q5TCQ9
Sequence of MAGI3_2, Q5TCQ9 (Q5TCQ9 398-503): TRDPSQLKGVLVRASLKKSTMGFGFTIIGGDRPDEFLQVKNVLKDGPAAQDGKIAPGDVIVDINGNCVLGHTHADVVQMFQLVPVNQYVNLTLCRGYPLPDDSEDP

RAPGEF6, Q8TEU7 = molecular target: T3, RAPGEF6, Q8TEU7
PTPN3, P26045 = molecular target: PTPN3, P26045
Sequence of PTPN3, P26045 (P26045 505-587): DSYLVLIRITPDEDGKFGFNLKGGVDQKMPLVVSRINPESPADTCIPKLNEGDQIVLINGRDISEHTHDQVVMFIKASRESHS

ARHGAP21, Q5T5U3 = molecular target: T4, ARHGAP21, Q5T5U3
SHANK1, Q9Y566 = molecular target: T5, SHANK1, Q9Y566
ARHGEF11, O15085 = molecular target: T6, ARHGEF11, O15085
LNX2_3, Q8N448 = molecular target: T7, LNX2_3, Q8N448
PARD3_3, Q8TEW0 = molecular target: PARD3_3, Q8TEW0
Sequence of PARD3_3, Q8TEW0 (Q8TEW0 582-685): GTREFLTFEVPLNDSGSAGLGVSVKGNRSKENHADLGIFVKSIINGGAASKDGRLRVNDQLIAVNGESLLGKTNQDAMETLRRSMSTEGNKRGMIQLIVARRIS

FRMPD2_1, Q68DX3 = molecular target: FRMPD2_1, Q68DX3
Sequence of FRMPD2_1, Q68DX3 (Q68DX3 770-861): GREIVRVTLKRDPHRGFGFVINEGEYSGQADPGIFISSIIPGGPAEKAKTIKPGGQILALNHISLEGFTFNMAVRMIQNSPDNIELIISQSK

NHERF4_1, Q86UT5-2 = molecular target: NHERF4_1, Q86UT5-2
Sequence of NHERF4_1, Q86UT5-2 (Q86UT5 other isoform, or with tags, fused parts or gaps): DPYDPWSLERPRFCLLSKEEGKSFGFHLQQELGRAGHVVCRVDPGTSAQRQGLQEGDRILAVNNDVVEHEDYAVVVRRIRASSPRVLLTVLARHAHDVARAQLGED

DLG4_1, P78352 = molecular target: DLG4_1, P78352
Sequence of DLG4_1, P78352 (P78352 62-152): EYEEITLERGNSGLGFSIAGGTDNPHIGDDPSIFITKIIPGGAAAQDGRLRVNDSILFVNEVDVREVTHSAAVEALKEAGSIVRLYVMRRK

Inadl_2, Q8NI35 = molecular target: Inadl_2, Q8NI35
Sequence of Inadl_2, Q8NI35 (Q8NI35 238-335): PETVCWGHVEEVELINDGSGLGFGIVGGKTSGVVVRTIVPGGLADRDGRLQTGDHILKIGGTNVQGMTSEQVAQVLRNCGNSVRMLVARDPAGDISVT

APBA1_1, Q02410 = molecular target: T8, APBA1_1, Q02410
Inadl_4, Q8NI35 = molecular target: Inadl_4, Q8NI35
Sequence of Inadl_4, Q8NI35 (Q8NI35 547-651): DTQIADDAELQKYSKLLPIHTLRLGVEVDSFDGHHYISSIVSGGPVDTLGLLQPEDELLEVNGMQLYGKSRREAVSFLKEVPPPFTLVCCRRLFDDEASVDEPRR

LRRC7, Q96NW7 = molecular target: T9, LRRC7, Q96NW7
APBA1_2, Q02410 = molecular target: T10, APBA1_2, Q02410
LDB3, O75112 = molecular target: LDB3, O75112
Sequence of LDB3, O75112 (O75112 1-94): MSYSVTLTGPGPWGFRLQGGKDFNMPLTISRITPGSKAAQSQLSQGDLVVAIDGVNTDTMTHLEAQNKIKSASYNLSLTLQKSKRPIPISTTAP

MAGI2_3, Q86UL8 = molecular target: MAGI2_3, Q86UL8
Sequence of MAGI2_3, Q86UL8 (Q86UL8 600-682): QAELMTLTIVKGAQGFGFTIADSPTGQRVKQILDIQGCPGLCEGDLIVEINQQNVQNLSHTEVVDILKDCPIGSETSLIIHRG

Row | pKd (GRID2IP_1, A4D2P6) | pKd (DLG2_3, Q15700) | pKd (Inadl_8, Q8NI35) | pKd (MAGI2_4, Q86UL8) | pKd (NHERF4_2, Q86UT5) | pKd (SCRIB_2, Q14160) | pKd (FRMPD2_2, Q68DX3) | pKd (LIN7C, Q9NUP9) | pKd (TJP3_3, O95049) | pKd (PDLIM1, O00151) | pKd (MAGI3_2, Q5TCQ9) | pKd (RAPGEF6, Q8TEU7) | pKd (PTPN3, P26045) | pKd (ARHGAP21, Q5T5U3) | pKd (SHANK1, Q9Y566) | pKd (ARHGEF11, O15085) | pKd (LNX2_3, Q8N448) | pKd (PARD3_3, Q8TEW0) | pKd (FRMPD2_1, Q68DX3) | pKd (NHERF4_1, Q86UT5-2) | Binder | other results
1 | below the threshold | below the threshold | below the threshold | below the threshold | below the threshold | 3.79 | below the threshold | below the threshold | below the threshold | 3.71 | below the threshold | below the threshold | 4.62 | 4.12 | 5.68 | 4.95 | below the threshold | below the threshold | below the threshold | 4.55 | EAVTVESTSL [SLC22A11, Q9NSA0] | pKd (DLG4_1, P78352): 3.65; pKd (Inadl_2, Q8NI35): below the threshold; pKd (APBA1_1, Q02410): below the threshold; pKd (Inadl_4, Q8NI35): below the threshold; pKd (LRRC7, Q96NW7): below the threshold; pKd (APBA1_2, Q02410): 3.86; pKd (LDB3, O75112): below the threshold; pKd (MAGI2_3, Q86UL8): below the threshold
2 | below the threshold | below the threshold | 4.08 | below the threshold | below the threshold | below the threshold | below the threshold | 3.95 | below the threshold | below the threshold | below the threshold | below the threshold | below the threshold | 4 | below the threshold | 3.55 | below the threshold | below the threshold | below the threshold | 3.66 | QQGLLPHSSC [TYRO3, Q06418] | pKd (DLG4_1, P78352): below the threshold; pKd (Inadl_2, Q8NI35): below the threshold; pKd (APBA1_1, Q02410): below the threshold; pKd (Inadl_4, Q8NI35): below the threshold; pKd (LRRC7, Q96NW7): below the threshold; pKd (APBA1_2, Q02410): below the threshold; pKd (LDB3, O75112): below the threshold; pKd (MAGI2_3, Q86UL8): below the threshold

Continued, binder first:

Row | Binder | pKd (GRID2IP_1, A4D2P6) | pKd (DLG2_3, Q15700) | pKd (Inadl_8, Q8NI35) | pKd (MAGI2_4, Q86UL8) | pKd (NHERF4_2, Q86UT5) | pKd (SCRIB_2, Q14160) | pKd (FRMPD2_2, Q68DX3) | pKd (LIN7C, Q9NUP9) | pKd (TJP3_3, O95049) | pKd (PDLIM1, O00151) | pKd (MAGI3_2, Q5TCQ9) | pKd (RAPGEF6, Q8TEU7) | pKd (PTPN3, P26045) | pKd (ARHGAP21, Q5T5U3) | pKd (SHANK1, Q9Y566) | pKd (ARHGEF11, O15085) | pKd (LNX2_3, Q8N448) | pKd (PARD3_3, Q8TEW0) | pKd (FRMPD2_1, Q68DX3) | pKd (NHERF4_1, Q86UT5-2) | other results
3 | PEKVSNTTVV [IGSF5, Q9NSI5] | below the threshold | 3.83 | below the threshold | 3.7 | below the threshold | below the threshold | below the threshold | below the threshold | below the threshold | below the threshold | 4.44 | below the threshold | below the threshold | below the threshold | below the threshold | 4.24 | below the threshold | below the threshold | below the threshold | below the threshold | pKd (DLG4_1, P78352): 4.15; pKd (Inadl_2, Q8NI35): below the threshold; pKd (APBA1_1, Q02410): below the threshold; pKd (Inadl_4, Q8NI35): below the threshold; pKd (LRRC7, Q96NW7): below the threshold; pKd (APBA1_2, Q02410): 3.51; pKd (LDB3, O75112): below the threshold; pKd (MAGI2_3, Q86UL8): 3.51
4 | FLVTEFNVML [DFNB31, Q9P202] | below the threshold | below the threshold | below the threshold | below the threshold | below the threshold | below the threshold | below the threshold | below the threshold | below the threshold | 3.75 | 3.66 | below the threshold | 3.89 | 4.61 | 3.84 | 3.95 | below the threshold | 4.49 | below the threshold | 3.9 | pKd (DLG4_1, P78352): below the threshold; pKd (Inadl_2, Q8NI35): below the threshold; pKd (APBA1_1, Q02410): below the threshold; pKd (Inadl_4, Q8NI35): below the threshold; pKd (LRRC7, Q96NW7): 3.64; pKd (APBA1_2, Q02410): 3.84; pKd (LDB3, O75112): 3.88; pKd (MAGI2_3, Q86UL8): below the threshold
5 | AHGSTRDQSI [KCNB1, Q14721] | below the threshold | 3.82 | below the threshold | 3.9 | below the threshold | below the threshold | below the threshold | below the threshold | 3.51 | below the threshold | below the threshold | 3.91 | 4.07 | below the threshold | 3.78 | 4.4 | below the threshold | below the threshold | 3.65 | 3.54 | pKd (DLG4_1, P78352): below the threshold; pKd (Inadl_2, Q8NI35): below the threshold; pKd (APBA1_1, Q02410): below the threshold; pKd (Inadl_4, Q8NI35): below the threshold; pKd (LRRC7, Q96NW7): below the threshold; pKd (APBA1_2, Q02410): below the threshold; pKd (LDB3, O75112): below the threshold; pKd (MAGI2_3, Q86UL8): below the threshold
